Experiment: soluble on expression in E. coli; label from the status in PepcDB or PDB records

| Sequence | soluble on expression in E. coli |
| --- | --- |
| MSLKVVFVSYEVFPFAKVGGLADVAGTLPKYLKKHGVDVTIVMPKHRIVEKNAEKFGYEIKKVAESLSVSHVKTDQKFDIYESVLPGSDVKTYFVANDYYFSAEDVYAGPDLGEQAIFFCAATLDLVKHLDLKPDIVHVNDWQTALIPVYLKTVYRDDPYFSRTATVLTIHNLGYQGVFDPKYLSFAGLPDYVYTIDGLEFYGQLNFLKGGIVFSDVINTVSPTYAEEIQTEEYGEKLDGVLRMRSKDLYGILNGIDYELYNPATDRYIYVNYDVNRLELKWENKVKLQEELGLPVNKETAVAGLISRLVPQKGLDLLVDVMDYLTLFDLQIVVLGTGDEQYENAFRKFQERYPDKVSANIKFDVELAQKIYAGADIFLMPSRYEPCGLGQMFSMRYGTIPVVRYTGGLADTVKEYDPQSMEGTGFGFKKYDSAHLLKAVSKALHFYYREKDHWRRIMTNAMNTDLSWDRSAKEYVDLYKKALAKVGREGHHHHHH | soluble |
| MAGFVPLRWPISRMSSAVPRYIVGIDLGTTHTVVSYADGGDPSRIEPLFLEQLVAPGQVAGRPLLPSVRYHPATGELAEADTALPWPVEETAPGCRPVIGEFARQLGSRSRGRLVASAKSWLCHTGVDRTADILPWGAPDEVPKVSPVEASASFLRHVRCAWNHRFPAHPLETQDVIVTIPASFDDAARALTVEAARRAGLANVRLLEEPQAACYDFLWTYRGRLAETLEGVNLLLVCDVGGGTTDFTLIRVDAGGSEPELERIAVGNHLMLGGDNIDLTLAHRLEPRLTGAERSLSATDLILLAEQCRRAKETLLAEQGPESVTVTLLGKGGGLIGGARSVELSRHEVLEVVLDGFFPRVGADAVPERRSGVVEFGLPYAADPAITRHAAAFLIRHRNDAGGAAPDALLLNGGVFHSPVIAGRMAEVVGSWCGRTPVMLRNPRPDQAVAFGAVAFGLSRRGLAVRRIGGGSARAYYLLVGDANERSRRGVCILPRGAAEGQEWTVERRNFLLSVGRPVRFHVFSSTVDSGHAPGDLAVLDEAGFGELPPLAVALQAQEQGDVEVRLAARLTAIGTLQLQCVAVGDPEQRWDLELQLRGGGPRPTASASLHPRAAEAQEHIGLIFGKKTRQFGPKAVKTLRNDLEKILGKREDWDTALCRELYAALLEGAPHRRRSADHERLWLSLAGYCLRPGFGAPLDDWRVGQVWNLYSQGLQFVNEAQNWSEWWIVWRRIAGGLRAEAQQRLFADVAGFIDPVRARRGNAEALAKKRAFEDMVRLAASLERLSAGDKTMLGGWLVQRLDKAPDSAELWWALGRVGARAPFHGSAHNLVAREVVEDWVELALQRDWKRQGFVAFAATLLARLTGDRERDLDATLRNRVAEKLVASSAPEIWLELVTEVRGLDASDEKRIFGEGLPPGLRLVDSAWGALEHHHHHH | not soluble |
| MKIHKTLTPWAAALLLASTAWPALAEVSTVRLAKQFGIGYLPLTLVEELDLLEKHAAASGHEITTEWLRFTGGSGMNEALLSGNLDLAAGGTGPLFTIWARTRENLKIKGVAALASMPLHLMTSNPEVKSLADFSQGDKIALPAVKTSIQAVTLQMASKQAFGPDKATAMDAFTVSMGHPDAQLALTGGQSEVTAHFGSPPFQNLEAKVEGIHKVLDSYDVLGGSHTFTVVWAADKFISENPEITKAFMAALEESMELISTNPEKAAEIWMAAERSPLSREEVVALIRDEQTVWTTTPERTLPYVEFLSESGLIKTSAEDWSEIFFDTMSGKEGS | not soluble |
| MPAFVDLEELLATRLLVQGNSGSGKSHLLRRLLEQSSSWVQHCVIDPEGDFVTLADKFGHVIVEAQRSEQELMRIAYRIRQHRVSVVLNLEGLDTEQQMRAVGTFLGALFDVERDYWYPMLVVVDEAQLFAPAVAGEVSDEARKISLSAMTNLMCRGRKRGLAGVIATQRLAKLAKNVAAEASNFLIGRTFLDIDMVRAADLLGMERRQAEMFRDLERGHFVALGPALSRRSLRIIIGSVETLARSSSPKLMPLPKERVDVKELVFTASQEEILIPFKQSREPVKEKSIHAILEKAVNKKRELLAENSSLFPELSVVDRDLQAECIIREILEDPEAFYRSTAVLYQDFLVRCRIHGLSGDFLNLSQFRRKLAIAQACVDKETAVSENWKRILYISESLEDDVQGVFLNVAQAALGGKPCPSDAFLARLYGTHSLSRARRLLTYFEERGLIVIHTHFSGQRIIAFPDLGVETAPGDPKEPI | not soluble |
| GPGSMNGEFPVLVSHHKLLMLPTVGVARYDSGNAGIIGEQTHNFHVIPEIELIVVRVHGKMTEYQHNHLLLTSVLQLHAKPLHLFLTNASINIQHIFAMTITMLHAIRFCPSGSTGPCCKHRQIRPIEHNEKEHAALTYLKTIVTGWHPQQTINMIMVLFAQPQEIVVPQ | not soluble |

Source: the DeepSol protein solubility set
